Results published in publication PMC7199903.

Biological target: recombinant soluble SARS-CoV-2 spike (S) glycoprotein, prefusion-stabilised trimer (2P, GSAS, C-terminal trimerization motif) (SARS-CoV-2)
Experiment: negative-stain EM

## recombinant soluble SARS-CoV-2 spike (S) glycoprotein, prefusion-stabilised trimer (2P, GSAS, C-terminal trimerization motif) (domain or fragment)
  stoichiometry N: 3
